This is an account of results in the supplement of paper PMC10567573.

The labels stand for the following.
B1: ZNF449 (parent)
chain: TLHQRTHTEERPFKCNYCGKSFRQ
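Further: lentivirally expressed fusions sorted by FACS into six bins by GFP to DsRed ratio, PSI derived from sequencing read proportions per bin multiplied by bin number.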

This series covers variants of B1. Nature of the series: protein stability index of a GFP-peptide fusion (GPS, HEK-293T) (PSI 1-6); higher = more stable. Conditions: c terminus: a fixed tail appended.
As to TLHQRTHTEMRPFKCNYCGKSFRQ, the protein stability index came out at 2.73.
Regarding TLHQRTHTEERPFKCNYCGKWFRQ, the protein stability index came out at 2.29.
Turning to TLHQRTHTEERPFKCNYCGKLFRQ, the protein stability index was determined as 3.6.
In the case of TLHQRTHTEERPFKCNYCGKDFRQ, the protein stability index came to 2.75.
To TLHQRTHTEERPFKCNYCGKKFRQ belongs 2.32; to TLHQRTHTEERPFKCNYCGKEFRQ, 3.13; to TLHQRTHTEERPFKCNYCGKPFRQ, 2.15.
In the case of TLHQRTHTEERPFKCNYCGKAFRQ it was 1.92.
To TLHQRTHTEERPFKCNYCGKNFRQ belongs 2.69.
In the case of TLAQRTHTEERPFKCNYCGKSFRQ, the protein stability index is 2.76.
In the case of TLMQRTHTEERPFKCNYCGKSFRQ it was 2.25; in that of TLRQRTHTEERPFKCNYCGKSFRQ, 2.82; in that of TLYQRTHTEERPFKCNYCGKSFRQ, 2.15.
In the case of TLNQRTHTEERPFKCNYCGKSFRQ it was 2.62; in that of TLWQRTHTEERPFKCNYCGKSFRQ, 2.82.
In the case of TLLQRTHTEERPFKCNYCGKSFRQ it was 1.85; in that of TLEQRTHTEERPFKCNYCGKSFRQ, 2.87; in that of TLKQRTHTEERPFKCNYCGKSFRQ, 2.89.
Turning to TLDQRTHTEERPFKCNYCGKSFRQ, the protein stability index stood at 2.62.
To TLHQRTHTEERPFKCNYCRKSFRQ belongs 2.6; to TLHQRTHTEERPFKCNYCTKSFRQ, 2.4; to TLHQRTHTEERPFKCNYCDKSFRQ, 3.4.
In the case of TLHQRTHTEERPFKCNYCWKSFRQ it was 1.97.
In the case of TLHQRTHTEERPFKCNYCMKSFRQ it was 2.73; in that of TLHQRTHTEERPFKCNYCYKSFRQ, 2.7; in that of TLHQRTHTEERPFKCNYCPKSFRQ, 2.67.
With TLHQRTHTEERPFKCNYCFKSFRQ, the protein stability index stood at 2.38.
To TLHQRTHTEERPFKCNYCHKSFRQ belongs 2.92; to TLHQRTHTEERPFKCNYCVKSFRQ, 2.09; to TLHQRTHNEERPFKCNYCGKSFRQ, 1.94.
In the case of TLHQRTHHEERPFKCNYCGKSFRQ it was 1.18; in that of TLHQRTHVEERPFKCNYCGKSFRQ, 2.59; in that of TLHQRTHEEERPFKCNYCGKSFRQ, 3.07.
To TLHQRTHYEERPFKCNYCGKSFRQ belongs 2.54; to TLHQRTHQEERPFKCNYCGKSFRQ, 2.69; to TLHQRTHKEERPFKCNYCGKSFRQ, 3.13.
As for TLHQRTHSEERPFKCNYCGKSFRQ, the protein stability index was 2.65.
To TLHQRTHREERPFKCNYCGKSFRQ belongs 1.99.
Consider TLHQRTHTEERPFKCNYCGKSFRF, for which the protein stability index is 2.56.
In the case of TLHQRTHTEERPFKCNYCGKSFRV it was 1.75; in that of TLHQRTHTEERPFKCNYCGKSFRL, 2.36; in that of TLHQRTHTEERPFKCNYCGKSFRM, 2.77.
With TLHQRTHTEERPFKCNYCGKSFRD, the protein stability index was 2.24.
In the case of TLHQRTHTEERPFKCNYCGKSFRY, the protein stability index was determined as 3.2.
Take TLHQRTHTEERPFKCNYCGKSFRS: the protein stability index is 3.49.
With TLHQRYHTEERPFKCNYCGKSFRQ, the protein stability index worked out at 2.25.
Regarding TLHQRDHTEERPFKCNYCGKSFRQ, the protein stability index came to 2.56.
In the case of TLHQREHTEERPFKCNYCGKSFRQ it was 2.67; in that of TLHQRPHTEERPFKCNYCGKSFRQ, 1.76; in that of TLHQRRHTEERPFKCNYCGKSFRQ, 2.28.
As for TLHQRGHTEERPFKCNYCGKSFRQ, the protein stability index was determined as 1.85.
To TLHQRNHTEERPFKCNYCGKSFRQ belongs 2.08.
As for TLHQRIHTEERPFKCNYCGKSFRQ, the protein stability index is 2.33.
To TLHQHTHTEERPFKCNYCGKSFRQ belongs 2.73; to TLHQVTHTEERPFKCNYCGKSFRQ, 3.27.
In the case of TLHQCTHTEERPFKCNYCGKSFRQ it was 4.17; in that of TLHQQTHTEERPFKCNYCGKSFRQ, 1.89.
In the case of TLHQFTHTEERPFKCNYCGKSFRQ it was 1.78; in that of TLHQRTHTEERPFKCNYCGASFRQ, 1.97.
As to TLHQRTHTEERPFKCNYCGFSFRQ, the protein stability index was 1.78.
In the case of TLHQRTHTEERPFKCNYCGCSFRQ it was 1.86; in that of TLHQRTHTEERPFKCNYCGSSFRQ, 2.12; in that of TLHQRTHTEERPFKCNYCGGSFRQ, 1.61.
As for TLHQRTHTEERPFKCNYCGRSFRQ, the protein stability index amounted to 3.28.
To TLHQRTHTEERPFKCNYCGQSFRQ belongs 1.82; to TLHQRTHTEERPFKCNYCGHSFRQ, 1.91.
In the case of TLHQRTHTEERPFKCNYCGLSFRQ it was 2.07; in that of TLHQRTHTEERPFKCNYCGPSFRQ, 2.31.
Regarding TLHQRTHTEERPFKSNYCGKSFRQ, the protein stability index was determined as 3.7.
To TLHQRTHTEERPFKINYCGKSFRQ belongs 3.13; to TLHQRTHTEERPFKNNYCGKSFRQ, 3.41.
As to TLHQRTHTEERPFKWNYCGKSFRQ, the protein stability index was found to be 2.59.
In the case of TLHQRTHTEERPFKKNYCGKSFRQ it was 3.55; in that of TLHQRTHTEERPFKPNYCGKSFRQ, 3.1.
Take TLHQRTHTEERPFKMNYCGKSFRQ: the protein stability index came to 2.82.
Take TLHQRTHTEERPFKYNYCGKSFRQ: the protein stability index is 3.26.
For TLHIRTHTEERPFKCNYCGKSFRQ, the protein stability index turned out to be 1.71.
With TLHVRTHTEERPFKCNYCGKSFRQ, the protein stability index was found to be 2.38.
In the case of TLHDRTHTEERPFKCNYCGKSFRQ, the protein stability index was 2.41.
For TLHCRTHTEERPFKCNYCGKSFRQ, the protein stability index was determined as 3.33.
In the case of TLHPRTHTEERPFKCNYCGKSFRQ it was 2.92; in that of TLHWRTHTEERPFKCNYCGKSFRQ, 2.24.
In the case of TLHQRTHTEERPFKCRYCGKSFRQ it was 1.65.
Consider TLHQRTHTEERPFKCLYCGKSFRQ, for which the protein stability index was 1.85.
TLHQRTHTEERPFKCCYCGKSFRQ: the protein stability index worked out at 1.73.
In the case of TLHQRTHTEERPFKCDYCGKSFRQ, the protein stability index came to 2.16.
As for TLHQRTHTEERPFKCFYCGKSFRQ, the protein stability index came to 2.75.
To TLHQRTHTEERPFKCHYCGKSFRQ belongs 1.93; to TLHQRTHTEERPFKCPYCGKSFRQ, 3.32.
As for TLHQRTHTEERPDKCNYCGKSFRQ, the protein stability index stood at 2.92.
To TLHQRTHTEERPNKCNYCGKSFRQ belongs 3.54; to TLHQRTHTEERPTKCNYCGKSFRQ, 3.78.
In the case of TLHQRTHTEERPKKCNYCGKSFRQ it was 2.28; in that of TLHQRTHTEERPMKCNYCGKSFRQ, 2.18.
